Test results taken from patent publication US20060280740A1.

Assays:
[1] = target: KIR2DL3 recombinant protein (entire extracellular domain, produced in E. coli, immobilized on Biacore chip) (human) (UniProt P43628); assay: SPR, KIR2DL3 chip; second Ab alone (field of first Ab 1-4 F1)
[2] = target: KIR2DL3 recombinant protein (entire extracellular domain, produced in E. coli, immobilized on Biacore chip) (human) (UniProt P43628); assay: SPR, KIR2DL3 chip; second Ab alone (field of first Ab 1-7 F9)
[3] = target: KIR2DL3 recombinant protein (entire extracellular domain, produced in E. coli, immobilized on Biacore chip) (human) (UniProt P43628); assay: SPR competition, KIR2DL3 chip; competitor (second Ab) Pan2D
[4] = target: KIR2DL3 recombinant protein (entire extracellular domain, produced in E. coli, immobilized on Biacore chip) (human) (UniProt P43628); assay: SPR competition, KIR2DL3 chip; competitor (second Ab) 1-7 F9
[5] = target: KIR2DL3 recombinant protein (entire extracellular domain, produced in E. coli, immobilized on Biacore chip) (human) (UniProt P43628); assay: SPR, KIR2DL3 chip; second Ab after first Ab 1-7 F9
[6] = target: KIR2DL3 recombinant protein (entire extracellular domain, produced in E. coli, immobilized on Biacore chip) (human) (UniProt P43628); assay: SPR, KIR2DL3 chip; second Ab alone (field of first Ab 1-6 F1)
[7] = target: KIR2DL3 recombinant protein (entire extracellular domain, produced in E. coli, immobilized on Biacore chip) (human) (UniProt P43628); assay: SPR, KIR2DL3 chip; second Ab after first Ab 1-6 F1
[8] = target: KIR2DL3 recombinant protein (entire extracellular domain, produced in E. coli, immobilized on Biacore chip) (human) (UniProt P43628); assay: SPR, KIR2DL3 chip; second Ab after first Ab 1-4 F1
[9] = target: KIR2DL3 recombinant protein (entire extracellular domain, produced in E. coli, immobilized on Biacore chip) (human) (UniProt P43628); assay: SPR competition, KIR2DL3 chip; competitor (second Ab) DF200
[10] = target: KIR2DL3 recombinant protein (entire extracellular domain, produced in E. coli, immobilized on Biacore chip) (human) (UniProt P43628); assay: SPR competition, KIR2DL3 chip; competitor (second Ab) 1-4 F1
[11] = target: KIR2DL3 recombinant protein (entire extracellular domain, produced in E. coli, immobilized on Biacore chip) (human) (UniProt P43628); assay: SPR competition, KIR2DL3 chip; competitor (second Ab) 1-6 F1
immobilized KIR 2DS1 [12] = target: immobilized KIR 2DS1 (UniProt Q14954); assay: SPR competition, KIR2DS1 chip; competitor (second Ab) 1-7 F9
[13] = target: KIR2DL1 recombinant protein (entire extracellular domain, produced in E. coli, immobilized on Biacore chip) (human) (UniProt P43626); assay: SPR, KIR2DL1 chip; second Ab after first Ab 1-7 F9
[14] = target: KIR2DL1 recombinant protein (entire extracellular domain, produced in E. coli, immobilized on Biacore chip) (human) (UniProt P43626); assay: SPR competition, KIR2DL1 chip; competitor (second Ab) 1-6 F1
immobilized KIR 2DS1 [15] = target: immobilized KIR 2DS1 (UniProt Q14954); assay: SPR, KIR2DS1 chip; second Ab after first Ab 1-7 F9
immobilized KIR 2DS1 [16] = target: immobilized KIR 2DS1 (UniProt Q14954); assay: SPR competition, KIR2DS1 chip; competitor (second Ab) 1-4 F1
[17] = target: KIR2DL1 recombinant protein (entire extracellular domain, produced in E. coli, immobilized on Biacore chip) (human) (UniProt P43626); assay: SPR competition, KIR2DL1 chip; competitor (second Ab) EB6
[18] = target: KIR2DL3 recombinant protein (entire extracellular domain, produced in E. coli, immobilized on Biacore chip) (human) (UniProt P43628); assay: SPR, KIR2DL3 chip; second Ab after first Ab 1-6 F5
[19] = target: KIR2DL3 recombinant protein (entire extracellular domain, produced in E. coli, immobilized on Biacore chip) (human) (UniProt P43628); assay: SPR competition, KIR2DL3 chip; competitor (second Ab) 1-6 F5
[20] = target: KIR2DL1 recombinant protein (entire extracellular domain, produced in E. coli, immobilized on Biacore chip) (human) (UniProt P43626); assay: SPR, KIR2DL1 chip; second Ab after first Ab 1-6 F1
[21] = target: KIR2DL3 recombinant protein (entire extracellular domain, produced in E. coli, immobilized on Biacore chip) (human) (UniProt P43628); assay: SPR competition, KIR2DL3 chip; competitor (second Ab) gl183
[22] = target: KIR2DL1 recombinant protein (entire extracellular domain, produced in E. coli, immobilized on Biacore chip) (human) (UniProt P43626); assay: SPR competition, KIR2DL1 chip; competitor (second Ab) DF200
immobilized KIR 2DS1 [23] = target: immobilized KIR 2DS1 (UniProt Q14954); assay: SPR competition, KIR2DS1 chip; competitor (second Ab) DF200
[24] = target: KIR2DL1 recombinant protein (entire extracellular domain, produced in E. coli, immobilized on Biacore chip) (human) (UniProt P43626); assay: SPR competition, KIR2DL1 chip; competitor (second Ab) 1-6 F5
immobilized KIR 2DS1 [25] = target: immobilized KIR 2DS1 (UniProt Q14954); assay: SPR, KIR2DS1 chip; second Ab alone (field of first Ab 1-7 F9)
[26] = target: KIR2DL1(R131W)-hFc (human) (UniProt P43626); assay: ELISA, KIR2DL1(R131W)-hFc against KIR2DL1-hFc, mAb at 1 µg/ml
[27] = target: KIR2DL1 recombinant protein (entire extracellular domain, produced in E. coli, immobilized on Biacore chip) (human) (UniProt P43626); assay: SPR, KIR2DL1 chip; second Ab alone (field of first Ab 1-7 F9)
[28] = target: KIR2DL1 recombinant protein (entire extracellular domain, produced in E. coli, immobilized on Biacore chip) (human) (UniProt P43626); assay: SPR competition, KIR2DL1 chip; competitor (second Ab) 1-4 F1
[29] = target: KIR2DL1 recombinant protein (entire extracellular domain, produced in E. coli, immobilized on Biacore chip) (human) (UniProt P43626); assay: SPR, KIR2DL1 chip; second Ab alone (field of first Ab 1-6 F1)
[30] = target: KIR2DL1 recombinant protein (entire extracellular domain, produced in E. coli, immobilized on Biacore chip) (human) (UniProt P43626); assay: SPR, KIR2DL1 chip; second Ab after first Ab 1-6 F5
[31] = target: KIR2DL3 recombinant protein (entire extracellular domain, produced in E. coli, immobilized on Biacore chip) (human) (UniProt P43628); assay: SPR, KIR2DL3 chip; second Ab alone (field of first Ab 1-6 F5)
[32] = target: KIR2DL1 recombinant protein (entire extracellular domain, produced in E. coli, immobilized on Biacore chip) (human) (UniProt P43626); assay: SPR, KIR2DL1 chip; second Ab alone (field of first Ab 1-6 F5)
[33] = target: KIR2DL1 recombinant protein (entire extracellular domain, produced in E. coli, immobilized on Biacore chip) (human) (UniProt P43626); assay: SPR competition, KIR2DL1 chip; competitor (second Ab) 1-7 F9
immobilized KIR 2DS1 [34] = target: immobilized KIR 2DS1 (UniProt Q14954); assay: SPR competition, KIR2DS1 chip; competitor (second Ab) Pan2D
[35] = target: KIR2DL3 recombinant protein (entire extracellular domain, produced in E. coli, immobilized on Biacore chip) (human) (UniProt P43628); assay: SPR (Biacore), KIR2DL3 immobilized on CM5, soluble antibody 1x10^-7 to 4x10^-10 M
[36] = target: KIR2DL1 recombinant protein (entire extracellular domain, produced in E. coli, immobilized on Biacore chip) (human) (UniProt P43626); assay: SPR competition, KIR2DL1 chip; competitor (second Ab) Pan2D
[37] = target: KIR2DL1 recombinant protein (entire extracellular domain, produced in E. coli, immobilized on Biacore chip) (human) (UniProt P43626); assay: SPR (Biacore), KIR2DL1 immobilized on CM5, soluble antibody 1x10^-7 to 4x10^-10 M

Sequence of KIR2DL1 recombinant protein (entire extracellular domain, produced in E. coli, immobilized on Biacore chip) (human) (P43626 22-245): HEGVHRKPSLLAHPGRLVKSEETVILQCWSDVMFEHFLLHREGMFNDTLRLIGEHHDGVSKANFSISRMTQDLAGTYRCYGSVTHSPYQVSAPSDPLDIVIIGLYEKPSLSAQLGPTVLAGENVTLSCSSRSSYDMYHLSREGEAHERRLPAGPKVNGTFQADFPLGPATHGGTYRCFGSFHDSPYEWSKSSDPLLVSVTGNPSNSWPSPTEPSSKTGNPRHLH
Sequence of immobilized KIR 2DS1 (Q14954 22-245 limits assumed): as the sequence (P43626 22-245) above, with T70K, V90L, L114P, P154T, D163N, H182R, K216E counted along it
Sequence of KIR2DL3 recombinant protein (entire extracellular domain, produced in E. coli, immobilized on Biacore chip) (human) (P43628 22-245): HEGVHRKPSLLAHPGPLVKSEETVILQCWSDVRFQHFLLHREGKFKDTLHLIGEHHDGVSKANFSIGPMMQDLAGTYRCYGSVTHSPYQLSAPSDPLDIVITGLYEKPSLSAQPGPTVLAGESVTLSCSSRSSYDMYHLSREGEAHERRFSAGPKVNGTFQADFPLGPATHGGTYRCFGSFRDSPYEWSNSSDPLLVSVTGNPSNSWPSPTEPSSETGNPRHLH
Sequence of KIR2DL1(R131W)-hFc (human) (P43626 22-245 R152W): as the sequence (P43626 22-245) above, with R131W counted along it

| Substance | RU, direct binding of second antibody [1] | RU, direct binding of second antibody [2] | % inhibition of second antibody binding [3] | % inhibition of second antibody binding [4] | RU, second antibody with first antibody present [5] | RU, direct binding of second antibody [6] | RU, second antibody with first antibody present [7] | RU, second antibody with first antibody present [8] | % inhibition of second antibody binding [9] | % inhibition of second antibody binding [10] | % inhibition of second antibody binding [11] | % inhibition of second antibody binding (immobilized KIR 2DS1 [12]) | RU, second antibody with first antibody present [13] | % inhibition of second antibody binding [14] | RU, second antibody with first antibody present (immobilized KIR 2DS1 [15]) | % inhibition of second antibody binding (immobilized KIR 2DS1 [16]) | % inhibition of second antibody binding [17] | RU, second antibody with first antibody present [18] | % inhibition of second antibody binding [19] | RU, second antibody with first antibody present [20] | other results |
| --- | --- | --- | --- | --- | --- | --- | --- | --- | --- | --- | --- | --- | --- | --- | --- | --- | --- | --- | --- | --- | --- |
| GL183 (IgG1 anti KIR2DL3) (antibody) | 1240 RU | 800 RU | 40% | 76% | 200 RU | 620 RU | 570 RU | 330 RU | 8% | 75% | 18% | – | – | – | – | – | – | – | – | – | – |
| monoclonal antibody NKVSF1 | 2400 RU | 870 RU | – | 15% | 830 RU | 990 RU | 1090 RU | 890 RU | 95% | 68% | 8% | 45% | 534 RU | 12% | 1200 RU | 100% | 90% | 950 RU | 18% | 440 RU | % inhibition of second antibody binding [21]: 85%; % inhibition of second antibody binding [22]: 90%; % inhibition of second antibody binding (immobilized KIR 2DS1 [23]): 100%; % inhibition of second antibody binding [24]: 13%; RU, direct binding of second antibody (immobilized KIR 2DS1 [25]): 1350 RU; reduction in binding compared to wild type [26]: 10%; RU, direct binding of second antibody [27]: 545 RU; % inhibition of second antibody binding [28]: 95%; RU, direct binding of second antibody [29]: 475 RU; RU, second antibody with first antibody present [30]: 440 RU; RU, direct binding of second antibody [31]: 990 RU; RU, direct binding of second antibody [32]: 475 RU; % inhibition of second antibody binding [33]: 2% |
| monoclonal antibody DF200 produced by hybridoma DF200 | 1140 RU | 770 RU | 75% | 62% | 450 RU | 790 RU | 760 RU | 210 RU | – | 75% | 16% | 15% | 545 RU | 15% | 1090 RU | 87% | 90% | 760 RU | 4% | 310 RU | % inhibition of second antibody binding (immobilized KIR 2DS1 [34]): 70%; Kd [35]: 2 nM; % inhibition of second antibody binding [21]: 20%; % inhibition of second antibody binding [24]: 15%; RU, direct binding of second antibody (immobilized KIR 2DS1 [25]): 900 RU; reduction in binding compared to wild type [26]: 10%; RU, direct binding of second antibody [27]: 600 RU; % inhibition of second antibody binding [28]: 92%; % inhibition of second antibody binding [36]: 80%; RU, direct binding of second antibody [29]: 350 RU; RU, second antibody with first antibody present [30]: 290 RU; RU, direct binding of second antibody [31]: 800 RU; RU, direct binding of second antibody [32]: 350 RU; Kd [37]: 10.9 nM; % inhibition of second antibody binding [33]: 27% |
